B1: CSFZ (Cys): residues 27-123 plus NANP (a single instance) plus residues 300-411 of P. falciparum CS protein (protein)
chain: GSSSNTRVLNELNYDNAGTNLYNELEMNYYGKQENWYSLKKNSRSLGENDDGNNNNGDNGREGKDEDKRDGNNEDNEKLRKPKHKKLKQPGDGNPDPNANPMPNDPNRNVDENANANNAVKNNNNEEPSDKHIEQYLKKIKNSISTEWSPCSVTCGNGIQVRIKPGSANKPKDELDYENDIEKKICKMEKCSSVFNVVNSSIGLIMVLSFLFL

Assays:
[1] = system: CS binding to HepG2 cells; assay: Enzyme treatment of HepG2 cells before CS binding; design: species or system human; settings: heparitinase from 5 U/ml, chondroitinase ABC from 1 U/ml; CSFZ(Cys) 5 μg/ml
Description: In some experiments the HepG2 cells were treated with either heparitinase (Sigma) or chondroitinase ABC (ICN) before incubation with the CS. Heparitinase treatment was performed in 0.05 M acetate buffer, pH 6.0, containing 1 mg/ml BSA and 1 mM PMSF, 5μg/ml leupeptin and pepstatin. Cells were treated for 3 hours at 37° C. and then were washed 3× with TBS before protein was added. Chondroitinase ABC treatment was performed overnight at 37° C. in 0.1 M Tris/HCl, pH 8.0, 0.03 M sodium acetate and 0.1% BSA, and washed 3× with TBS. Enzyme-treated cells were then incubated with CS as outlined above.
Paraformaldehyde-fixed HepG2 cells were preincubated with varying amounts of enzyme, washed and then incubated with 5 μg/ml of CSFZ(Cys). […] Heparitinase and chondroitinase ABC were used at initial concentrations of 5 U/ml and 1 U/ml, respectively. […] Each point represents the mean of triplicates, and percent inhibition was calculated by comparison to cells that were not treated with enzyme.

[2] = system: plasma membrane receptors for CS; assay: Enzyme digestion of human liver sections before CS27IVC immunolabeling; type: binding; settings: 2 hours 37°; chondroitinase ABC 2 U/ml, heparitinase 20 U/ml
Description: Normal rat kidney tissue was fixed with 4% paraformaldehyde and 1% glutaraldehyde in phosphate-buffered saline (PBS) and embedded in LR White; normal human liver was fixed similarly and embedded in Lowicryl K4M (Cerami et al., Cell 70:1021-1033, 1992). Ultrathin sections were sequentially labeled with 10-50 μg/ml CS27IVC, 15 μg/ml mAb 2A10 and a 1:30 dilution of PAG15. Prior to immunolabeling, part of the sections were incubated for 120 min at 37° C. with heparitinase and chondroitinase ABC (both ICN) using concentrations of 20 U/ml and 2 U/ml, respectively. Control specimens were incubated only with the gold markers or with mAb 2A10 and PAG15.
Human liver sections were incubated with heparitinase or chondroitinase ABC for 2 hours at 37° C., prior to immunolabeling with recombinant CS. The sections were then labelled with CS27IVC followed by mAb 2A10 and PAG15. FIGS. 8a and 8b are electron micrographs of Lowicryl K4M-embedded sections. The section of FIG. 8a was treated with 2 U/ml chondroitinase ABC (ICN) for 2 hour at 37° before the immunolabeling. The typical CS label on the space of Disse (D) and on the lateral domain of the hepatocyte plasma membrane (arrows) and on lysosomes (L) was unaltered. The patchy pattern of CS-labeled hepatocyte microvilli within the space of Disse was still present in the chondroitinase-treated sections (FIG. 8a). […]

[3] = system: heparan sulfate proteoglycans (HSPG); assay: CS/proteoglycan co-immunoprecipitation; type: binding, human
Description: All extracts and supernatants were first precleared with normal rabbit serum and Staph A cells. Then 32 μg/ml of CSFZ(Cys) or 64 μg/ml of CS27IVC, Falc-2 or Falc-1 were added for 30 minutes, followed by 10.8 μg/ml mAb 2A10 for 30 minutes, and 1% Staph A cells (final concentrations). The suspensions were shaken for 1 to 5 hours at 4° C. The Staph A cells were washed 3 times with the lysis buffer A, 2 times with lysis buffer B (10 mM Tris-HCl, pH 7.2, containing 100 mM NaCl and 0.5% NP40), 1 time with 50 mM Tris-HCl, ph 7.2, and were processed in this buffer for electrophoresis under reducing and non-reducing conditions.
Extracts of cells metabolically labeled with ^35SO4 were incubated for 30 minutes at 4° C. with 32 μg/ml of recombinant CSFZ(Cys) or 64 μg/ml Falc-1, and were immunoprecipitated with mAb 2A10 and Staph A cells. […] Immunoprecipitation with Falc-1 was negative. The SDS-PAGE patterns of the total lysate of HepG2 cells, and of the molecules co-immunoprecipitated with CSFZ(Cys) resembled the corresponding liver SDS-PAGE patterns. In kidney lysates, CSFZ(Cys) selectively immunoprecipitated a band of slightly lower molecular weight than the total kidney sulfated molecules.
Sub-confluent HepG2 cells were incubated with various concentrations of trypsin for 5 minutes at 4° C. […] Independently of the trypsin concentration, about 80% of the released HSPG was co-immunoprecipitated by 32 μg/ml CSFZ(Cys) and 10.8 μg/ml mAb 2A10. Under the same conditions, Falc-1 was negative.
^35SO4-labeled trypsin-released proteoglycan (total supernatant) was precipitated by CSFZ(Cys) (32 μg/ml), Falc-2 (64 μg/ml), CS27IVC (64 μg/ml) and Falc-1 (64 μg/ml). The labeled molecules were incubated with CSFZ(Cys), CS27IVC, and Falc-2 at equivalent concentrations of Region II+, and co-immunoprecipitated with the mAb 2A10. CSFZ(Cys), lacking most of the repeat region, precipitated up to 86% of the total sulfate-labeled proteoglycans (see FIG. 14), while CS27IVC and Falc-2 precipitated only 18% and 6% of the counts, respectively. Falc-1, which lacks Region II+, was negative.
Subconfluent sulfate-labeled HepG2 cells were incubated with 20 μg/ml trypsin for 5 minutes at 4° C., and the supernatants were loaded onto an anion exchange chromatography Pharmacia mono-Q column. These were eluted with a 0 to 2 M NaCl gradient in the presence of 7 M urea. […] Protein was not detectable in the labeled peaks. One ml fractions were collected and counted.

rat liver sections = assay: Staining of frozen tissue sections with recombinant CS polypeptides; type: binding; settings: revealed with MAb 2A10, fluorescence; CS27IVC 50-5 μg/ml, Falciparum-2 25 μg/ml, Falciparum-1 up to 250 μg/ml
Description: The procedure was carried out essentially as described by Dukor P. et al., Proc. Natl. Acad. Sci. USA 67:991-997, 1970 and Imai Y. et al., J. Cell. Biol. 111:1225-1232, 1990. Rats were euthanized with CO2. Small pieces of the liver, spleen, heart, brain and lung were removed, snap frozen in liquid nitrogen, embedded in Tissue Tek O.C.T. (Miles, Inc., Naperville, Ill.), and cut into 5 μm sections. Sections were dried for 30 min., fixed for 10 min. in 4% paraformaldehyde, rinsed three times with phosphate-buffered saline (PBS), and either used immediately or stored at 4° C. in 1% BSA, 0.5% Tween, PBS (BSA/TPBS). After blocking with 100 mM glycine (pH 7.2) and with BSA/TPBS, the sections were sequentially incubated at 37° C. with recombinant proteins for 1 hr, 10 μg/ml MAb 2A10 for 45 min., and rat anti-mouse immunoglobulin conjugated to fluorescein isothiocyanate (Boehringer Mannheim, Indianapolis, Ind.) for 45 min. The slides were counterstained for 10 min. with 0.3% Evans blue, rinsed extensively in PBS, and finally observed under a fluorescence microscope. For peptide inhibition experiments, the sections were first incubated with the peptide at various concentrations in BSA/TPBS for 1 hour at 37° C., washed six times with BSA/TPBS, and then stained with 2.5 μg/ml CS recombinant protein as described above. In a few experiments, the tissues were fixed for 10 min. with methanol, acetone, or 4% paraformaldehyde containing 0.5% glutaraldehyde.
Frozen sections of various rat organs were incubated with recombinant CS27IVC polypeptide. […] The staining closely followed the sinusoidal spaces of the hepatic lobules, indicating CS binding to the hepatocyte membrane. Other areas of the liver sections and sections of other organs (spleen, lung, heart or brain) were not stained. Control sections (incubated with CS27IVC in the absence of antibody or vice versa) were not stained either.
To define the region of the CS that mediates the perisinusoidal staining various other recombinant constructs were also used in the frozen section assay.

HepG2 cells = assay: HepG2 cell binding assay of recombinant CS polypeptides; design: species or system human; settings: indirect immunofluorescence
Description: For indirect immunofluorescence, HepG2 cells (ATCC number HB8065, Rockville, Md.; Knowles, B. P., et al., Science 209:497-499, 1980) were grown on slides (Cel-Line Associates, Inc., Newfield, N.J.) overnight in minimum essential medium with 10% fetal calf serum (FCS-MEM; GIBCO, Grand Island, N.Y.), 1 mM L-glutamine (GIBCO), 3 mg/ml glucose (Sigma), 1×nonessential amino acids (GIBCO), 50 μg/ml penicillin, and 100 μg/ml streptomycin (GIBCO). For the enzyme-linked immunosorbent assay, 10^5 HepG2 cells were deposited in 96-well Falcon tissue culture plates (Becton Dickinson, Oxnard, Calif.) and grown for 24 hr. in FCS-MEM. The cells were fixed with 4% paraformaldehyde, washed three times with PBS, and stored at 4° C. in BSA/TPBS until use. Before the experiments, plates were blocked for 2 hr. at 37° C. with 1% gelatin, 0.05% Tween in PBS (pH 7.4) (gelatin/TPBS). […] After 15 min., fluorescence was read in a Fluoroskan II plate reader (Flow Lab Inc., McLean, Va.) with excitation filter 350 nm and emission filter 460 nm. […]
In order to quantify more accurately the effectiveness of various peptides in inhibiting the CS27IVC binding to hepatocytes additional experiments were performed using the human hepatoma cell line HepG2. This cell line is invaded readily by P.berghei sporozoites. […] The results, expressed in fluorescence units v. protein concentration are depicted in FIG. 6. […]

Molecule | effect of enzyme treatment of HepG2 cells on CS binding [1] | CS27IVC label on human liver sections after enzyme treatment [2] | co-immunoprecipitation of 35SO4-labeled sulfated molecules ([3]; lysates of rat liver, HepG2 cells, kidney, CSFZ(Cys) 32 μg/ml, others 64 μg/ml) | counts in the mono-Q peak co-immunoprecipitated ([3]; peak at 0.6 to 0.8 M NaCl) | released HSPG co-immunoprecipitated ([3]; trypsin-released from HepG2 cells, CSFZ(Cys) 32 μg/ml, mAb 2A10 10.8 μg/ml) | total sulfate-labeled proteoglycans precipitated ([3]; trypsin-released proteoglycan, equivalent concentrations of Region II+) | binding (staining) to frozen liver sections (rat liver sections) | binding to HepG2 cells (HepG2 cells)
chondroitinase ABC | no effect | unaltered |  |  |  |  |  | 
B1 |  |  | co-immunoprecipitated sulfated molecules | about 80% | about 80% | up to 86% | bound with the same pattern as CS27IVC | bound

From patent publication US20030119733A1, “Compositions and methods for inhibiting hepatocyte invasion by malarial sporozoites” (New York University, priority 1992, published 2003)
